Reference: the supplement of paper PMC10065799, “High-throughput profiling of sequence recognition by tyrosine kinases and SH2 domains using bacterial peptide display” (eLife, 2023)

What was measured:
[1] = target: c-Src SH2; experiment: SH2 binding enrichment of the phosphorylated peptide, bacterial display (enrichment ratio); higher = better substrate or ligand; peptides without Tyr show the background
[2] = target: SHP2-C SH2; experiment: as above
[3] = target: Grb2 SH2 (UniProt P62993); experiment: as above
[4] = tested on: AncSZ; experiment: phosphorylation enrichment, bacterial display (enrichment ratio); higher = better substrate or ligand; peptides without Tyr show the background
[5] = target: Hck (UniProt P08631); experiment: as above
[6] = tested on: c-Abl (mouse); experiment: as above
[7] = target: FGFR3 (UniProt P22607); experiment: as above
[8] = target: Jak2 (UniProt O60674); experiment: as above
[9] = target: Fyn (UniProt P06241); experiment: as above
[10] = tested on: c-Src; experiment: as above
[11] = target: EPHB2 (UniProt P29323); experiment: as above
[12] = tested on: Fer (mouse); experiment: as above
[13] = target: Fes (UniProt P07332); experiment: as above
[14] = target: MERTK (UniProt Q12866); experiment: as above
[15] = target: FGFR1 (UniProt P11362); experiment: as above
[16] = target: EPHB1 (UniProt P54762); experiment: as above
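Wherever SH2 binding enrichment of the phosphorylated peptide, bacterial display is given: peptide library displayed on the E. coli surface as eCPX fusions, selected cells deep-sequenced, score is each peptide's frequency after selection divided by its frequency in the input.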
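Wherever phosphorylation enrichment, bacterial display is given: 11-residue human phosphosite peptides and single-mutation variants displayed on the E. coli surface, counted by deep sequencing, each peptide's frequency after selection divided by its frequency in the unselected input library; frequency after pTyr selection over input frequency; kinase dosed for 20-30% of maximal phosphorylation in three min.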

Sequence of Hck (P08631 whole entry, looked up): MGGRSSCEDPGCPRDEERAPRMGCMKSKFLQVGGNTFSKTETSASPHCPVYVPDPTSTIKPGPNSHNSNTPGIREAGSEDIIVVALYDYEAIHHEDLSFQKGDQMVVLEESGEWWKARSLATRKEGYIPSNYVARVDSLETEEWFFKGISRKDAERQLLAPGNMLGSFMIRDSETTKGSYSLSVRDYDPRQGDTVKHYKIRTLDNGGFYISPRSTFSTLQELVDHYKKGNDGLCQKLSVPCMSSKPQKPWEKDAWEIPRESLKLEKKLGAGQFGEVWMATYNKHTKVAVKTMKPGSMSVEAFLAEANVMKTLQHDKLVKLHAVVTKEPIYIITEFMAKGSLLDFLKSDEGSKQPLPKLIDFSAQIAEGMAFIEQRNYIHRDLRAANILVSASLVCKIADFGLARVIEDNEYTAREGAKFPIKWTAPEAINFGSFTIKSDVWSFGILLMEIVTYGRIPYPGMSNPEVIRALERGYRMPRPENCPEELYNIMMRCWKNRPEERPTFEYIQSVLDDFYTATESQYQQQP
Sequence of MERTK (Q12866 whole entry, looked up): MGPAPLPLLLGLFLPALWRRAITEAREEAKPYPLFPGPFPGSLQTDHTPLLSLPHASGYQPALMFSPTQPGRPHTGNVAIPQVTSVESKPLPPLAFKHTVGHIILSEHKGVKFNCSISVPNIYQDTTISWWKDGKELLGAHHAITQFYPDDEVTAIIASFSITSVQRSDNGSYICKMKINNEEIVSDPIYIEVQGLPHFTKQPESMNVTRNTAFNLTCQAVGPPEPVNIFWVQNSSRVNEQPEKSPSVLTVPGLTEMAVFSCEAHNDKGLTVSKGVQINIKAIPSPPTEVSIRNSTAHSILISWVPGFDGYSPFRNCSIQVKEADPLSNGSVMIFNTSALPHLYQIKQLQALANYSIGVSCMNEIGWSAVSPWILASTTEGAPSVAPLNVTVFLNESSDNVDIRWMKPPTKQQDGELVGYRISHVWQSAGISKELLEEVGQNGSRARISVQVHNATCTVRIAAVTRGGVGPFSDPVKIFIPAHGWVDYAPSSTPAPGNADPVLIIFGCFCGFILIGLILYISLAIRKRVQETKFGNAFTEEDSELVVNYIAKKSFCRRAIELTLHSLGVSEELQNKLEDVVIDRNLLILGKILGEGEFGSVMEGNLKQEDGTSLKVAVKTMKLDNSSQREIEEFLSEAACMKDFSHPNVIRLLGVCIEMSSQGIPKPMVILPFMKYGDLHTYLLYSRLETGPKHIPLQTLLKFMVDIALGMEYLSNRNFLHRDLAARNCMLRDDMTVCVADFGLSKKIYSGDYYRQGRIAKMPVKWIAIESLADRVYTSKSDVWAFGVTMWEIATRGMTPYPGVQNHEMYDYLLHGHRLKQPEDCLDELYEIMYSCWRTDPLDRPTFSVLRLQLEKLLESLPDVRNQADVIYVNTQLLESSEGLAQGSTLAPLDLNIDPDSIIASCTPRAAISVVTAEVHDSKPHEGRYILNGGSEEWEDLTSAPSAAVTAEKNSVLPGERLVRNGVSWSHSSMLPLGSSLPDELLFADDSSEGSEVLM
Sequence of Fes (P07332 whole entry, looked up): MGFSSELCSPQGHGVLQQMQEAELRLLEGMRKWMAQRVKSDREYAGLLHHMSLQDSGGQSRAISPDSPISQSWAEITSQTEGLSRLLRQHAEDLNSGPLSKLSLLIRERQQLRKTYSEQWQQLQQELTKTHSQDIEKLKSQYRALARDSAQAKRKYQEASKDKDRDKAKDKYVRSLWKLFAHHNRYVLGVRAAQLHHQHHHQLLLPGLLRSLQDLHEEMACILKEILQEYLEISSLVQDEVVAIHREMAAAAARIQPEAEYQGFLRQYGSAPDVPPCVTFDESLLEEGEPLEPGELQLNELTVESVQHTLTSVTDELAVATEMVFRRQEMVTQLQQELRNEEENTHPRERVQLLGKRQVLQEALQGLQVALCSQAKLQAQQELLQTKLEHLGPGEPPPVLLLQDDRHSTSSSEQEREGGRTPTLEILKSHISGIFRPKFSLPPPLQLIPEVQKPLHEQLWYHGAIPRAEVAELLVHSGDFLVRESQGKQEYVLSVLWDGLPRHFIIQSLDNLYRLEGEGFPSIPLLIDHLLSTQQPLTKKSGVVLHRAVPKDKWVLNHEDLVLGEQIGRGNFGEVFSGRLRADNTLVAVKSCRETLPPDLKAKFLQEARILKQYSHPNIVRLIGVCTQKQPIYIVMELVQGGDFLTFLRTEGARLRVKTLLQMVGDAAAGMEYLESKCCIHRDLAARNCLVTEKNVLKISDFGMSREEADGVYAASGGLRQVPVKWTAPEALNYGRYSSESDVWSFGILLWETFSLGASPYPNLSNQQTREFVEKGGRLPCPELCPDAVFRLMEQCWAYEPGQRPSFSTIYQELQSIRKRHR
Sequence of Fyn (P06241 whole entry, looked up): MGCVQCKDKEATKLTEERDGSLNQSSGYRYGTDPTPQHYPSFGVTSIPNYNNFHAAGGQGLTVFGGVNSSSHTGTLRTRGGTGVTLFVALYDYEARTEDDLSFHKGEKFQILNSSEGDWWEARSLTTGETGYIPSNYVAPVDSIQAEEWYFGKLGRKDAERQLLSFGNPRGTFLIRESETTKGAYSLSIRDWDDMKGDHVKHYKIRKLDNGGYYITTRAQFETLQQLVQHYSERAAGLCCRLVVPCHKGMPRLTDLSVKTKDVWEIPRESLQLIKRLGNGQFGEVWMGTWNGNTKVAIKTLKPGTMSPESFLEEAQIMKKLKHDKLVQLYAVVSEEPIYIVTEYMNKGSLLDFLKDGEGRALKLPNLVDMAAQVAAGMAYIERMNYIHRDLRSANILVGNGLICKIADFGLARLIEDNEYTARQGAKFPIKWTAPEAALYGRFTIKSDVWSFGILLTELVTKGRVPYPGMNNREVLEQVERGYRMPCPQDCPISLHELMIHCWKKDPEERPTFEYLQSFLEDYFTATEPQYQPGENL
Sequence of FGFR1 (P11362 whole entry, looked up): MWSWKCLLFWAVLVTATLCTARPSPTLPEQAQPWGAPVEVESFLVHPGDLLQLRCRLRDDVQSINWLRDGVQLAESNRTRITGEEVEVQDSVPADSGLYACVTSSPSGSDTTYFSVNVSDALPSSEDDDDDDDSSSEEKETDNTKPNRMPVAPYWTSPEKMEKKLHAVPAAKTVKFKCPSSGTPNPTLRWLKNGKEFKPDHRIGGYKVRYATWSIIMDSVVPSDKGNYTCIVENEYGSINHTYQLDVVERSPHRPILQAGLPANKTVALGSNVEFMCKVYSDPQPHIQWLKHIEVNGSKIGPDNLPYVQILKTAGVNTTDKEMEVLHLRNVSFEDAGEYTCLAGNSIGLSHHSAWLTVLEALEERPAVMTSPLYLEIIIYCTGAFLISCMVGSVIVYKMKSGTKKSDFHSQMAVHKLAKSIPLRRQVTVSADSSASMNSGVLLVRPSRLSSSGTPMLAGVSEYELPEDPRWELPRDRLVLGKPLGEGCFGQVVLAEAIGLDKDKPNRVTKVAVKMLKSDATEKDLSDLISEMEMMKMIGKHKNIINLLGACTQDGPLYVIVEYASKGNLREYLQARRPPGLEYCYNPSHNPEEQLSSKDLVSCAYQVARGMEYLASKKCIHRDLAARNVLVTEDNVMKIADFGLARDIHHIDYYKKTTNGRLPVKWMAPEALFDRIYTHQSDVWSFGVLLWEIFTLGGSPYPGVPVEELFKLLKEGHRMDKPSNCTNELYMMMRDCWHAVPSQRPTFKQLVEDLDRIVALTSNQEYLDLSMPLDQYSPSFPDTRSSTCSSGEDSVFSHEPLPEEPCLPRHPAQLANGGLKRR
Sequence of EPHB1 (P54762 whole entry, looked up, the tested form may be a part): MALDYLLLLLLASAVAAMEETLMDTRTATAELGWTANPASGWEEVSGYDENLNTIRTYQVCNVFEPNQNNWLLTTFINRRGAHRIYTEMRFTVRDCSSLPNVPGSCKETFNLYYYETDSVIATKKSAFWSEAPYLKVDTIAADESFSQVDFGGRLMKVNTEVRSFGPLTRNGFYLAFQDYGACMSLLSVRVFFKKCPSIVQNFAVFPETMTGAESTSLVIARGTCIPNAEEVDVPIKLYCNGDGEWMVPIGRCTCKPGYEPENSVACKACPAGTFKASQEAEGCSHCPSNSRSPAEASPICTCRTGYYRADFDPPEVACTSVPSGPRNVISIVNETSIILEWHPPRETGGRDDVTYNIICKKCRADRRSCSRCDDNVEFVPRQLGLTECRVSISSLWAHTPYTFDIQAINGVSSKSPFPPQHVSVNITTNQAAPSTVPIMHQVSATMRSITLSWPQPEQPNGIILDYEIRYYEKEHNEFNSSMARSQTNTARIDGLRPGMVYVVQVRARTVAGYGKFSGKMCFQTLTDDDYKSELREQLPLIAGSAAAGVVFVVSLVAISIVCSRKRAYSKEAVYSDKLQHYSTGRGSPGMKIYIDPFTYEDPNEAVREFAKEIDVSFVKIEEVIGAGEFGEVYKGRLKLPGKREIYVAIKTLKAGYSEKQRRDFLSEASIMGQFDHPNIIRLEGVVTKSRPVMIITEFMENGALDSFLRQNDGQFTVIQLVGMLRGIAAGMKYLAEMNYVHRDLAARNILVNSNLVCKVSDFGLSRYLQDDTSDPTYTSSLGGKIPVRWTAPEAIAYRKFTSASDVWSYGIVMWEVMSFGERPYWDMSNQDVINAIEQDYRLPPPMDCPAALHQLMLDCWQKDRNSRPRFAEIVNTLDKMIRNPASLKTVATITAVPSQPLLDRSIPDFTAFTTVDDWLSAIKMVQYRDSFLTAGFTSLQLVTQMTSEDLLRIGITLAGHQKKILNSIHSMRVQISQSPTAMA
Sequence of Grb2 SH2 (P62993 whole entry, looked up): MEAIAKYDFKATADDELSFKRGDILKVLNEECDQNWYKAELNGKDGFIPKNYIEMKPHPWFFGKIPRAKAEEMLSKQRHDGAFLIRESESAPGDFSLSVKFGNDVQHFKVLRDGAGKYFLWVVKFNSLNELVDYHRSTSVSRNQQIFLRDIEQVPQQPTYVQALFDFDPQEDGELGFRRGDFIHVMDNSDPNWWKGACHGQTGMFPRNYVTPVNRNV

MTFQNYGQALF [FAM20C_Y279]
SH2 binding enrichment [1]: 0.515 | SH2 binding enrichment [2]: 0.783 | SH2 binding enrichment [3]: 0.921 | phosphorylation enrichment [4]: 0.901 | phosphorylation enrichment [5]: 0.462 | phosphorylation enrichment [6]: 0.605 | phosphorylation enrichment [7]: 0.739 | phosphorylation enrichment [8]: 0.893 | phosphorylation enrichment [9]: 0.458 | phosphorylation enrichment [10]: 0.489 | phosphorylation enrichment [11]: 1.65 | phosphorylation enrichment [12]: 0.496 | phosphorylation enrichment [13]: 0.827 | phosphorylation enrichment [14]: 0.429 | phosphorylation enrichment [15]: 0.46 | phosphorylation enrichment [16]: 0.758

MTRDIYETDFF [INSR_Y1185_YF]
SH2 binding enrichment [1]: 0.997 | SH2 binding enrichment [2]: 0.565 | SH2 binding enrichment [3]: 0.855 | phosphorylation enrichment [4]: 1.13 | phosphorylation enrichment [5]: 1.4 | phosphorylation enrichment [6]: 0.909 | phosphorylation enrichment [7]: 0.821 | phosphorylation enrichment [8]: 1.23 | phosphorylation enrichment [9]: 1.93 | phosphorylation enrichment [10]: 2.06 | phosphorylation enrichment [11]: 0.788 | phosphorylation enrichment [12]: 1.15 | phosphorylation enrichment [13]: 1.39 | phosphorylation enrichment [14]: 1.22 | phosphorylation enrichment [15]: 0.56 | phosphorylation enrichment [16]: 0.936

MYQVQYNSSVD [LRFN1_Y458]
SH2 binding enrichment [1]: 0.514 | SH2 binding enrichment [2]: 0.748 | SH2 binding enrichment [3]: 0.735 | phosphorylation enrichment [4]: 1.05 | phosphorylation enrichment [5]: 0.505 | phosphorylation enrichment [6]: 0.52 | phosphorylation enrichment [7]: 0.686 | phosphorylation enrichment [8]: 0.721 | phosphorylation enrichment [9]: 0.559 | phosphorylation enrichment [10]: 0.417 | phosphorylation enrichment [11]: 0.69 | phosphorylation enrichment [12]: 0.52 | phosphorylation enrichment [13]: 0.963 | phosphorylation enrichment [14]: 0.699 | phosphorylation enrichment [15]: 0.488 | phosphorylation enrichment [16]: 0.606

NAGAFYALSTL [FLVCR2_Y325]
SH2 binding enrichment [1]: 0.592 | SH2 binding enrichment [2]: 0.837 | SH2 binding enrichment [3]: 0.979 | phosphorylation enrichment [4]: 0.784 | phosphorylation enrichment [5]: 0.752 | phosphorylation enrichment [6]: 0.608 | phosphorylation enrichment [7]: 0.649 | phosphorylation enrichment [8]: 0.751 | phosphorylation enrichment [9]: 0.567 | phosphorylation enrichment [10]: 1.23 | phosphorylation enrichment [11]: 0.784 | phosphorylation enrichment [12]: 3.19 | phosphorylation enrichment [13]: 0.764 | phosphorylation enrichment [14]: 4.76 | phosphorylation enrichment [15]: 0.61 | phosphorylation enrichment [16]: 0.822

NAGAFYVLSTL [FLVCR2_Y325_A326V]
SH2 binding enrichment [1]: 0.489 | SH2 binding enrichment [2]: 0.6 | SH2 binding enrichment [3]: 0.634 | phosphorylation enrichment [4]: 1.03 | phosphorylation enrichment [5]: 0.476 | phosphorylation enrichment [6]: 0.69 | phosphorylation enrichment [7]: 0.699 | phosphorylation enrichment [8]: 0.995 | phosphorylation enrichment [9]: 0.464 | phosphorylation enrichment [10]: 0.523 | phosphorylation enrichment [11]: 0.573 | phosphorylation enrichment [12]: 0.525 | phosphorylation enrichment [13]: 1.17 | phosphorylation enrichment [14]: 0.705 | phosphorylation enrichment [15]: 0.483 | phosphorylation enrichment [16]: 0.55

NAPNSYGRRLI [CDKN2A_Y44_P48L]
SH2 binding enrichment [1]: 0.332 | SH2 binding enrichment [2]: 0.32 | SH2 binding enrichment [3]: 0.897 | phosphorylation enrichment [4]: 0.627 | phosphorylation enrichment [5]: 0.504 | phosphorylation enrichment [6]: 0.48 | phosphorylation enrichment [7]: 0.509 | phosphorylation enrichment [8]: 0.531 | phosphorylation enrichment [9]: 0.413 | phosphorylation enrichment [10]: 0.449 | phosphorylation enrichment [11]: 0.454 | phosphorylation enrichment [12]: 0.475 | phosphorylation enrichment [13]: 0.616 | phosphorylation enrichment [14]: 0.442 | phosphorylation enrichment [15]: 0.446 | phosphorylation enrichment [16]: 0.372

NDLMEYAKQHG [ASS1_Y163]
SH2 binding enrichment [1]: 0.381 | SH2 binding enrichment [2]: 0.621 | SH2 binding enrichment [3]: 0.724 | phosphorylation enrichment [4]: 0.852 | phosphorylation enrichment [5]: 0.502 | phosphorylation enrichment [6]: 0.75 | phosphorylation enrichment [7]: 0.563 | phosphorylation enrichment [8]: 0.856 | phosphorylation enrichment [9]: 0.457 | phosphorylation enrichment [10]: 0.437 | phosphorylation enrichment [11]: 0.471 | phosphorylation enrichment [12]: 0.541 | phosphorylation enrichment [13]: 0.896 | phosphorylation enrichment [14]: 0.426 | phosphorylation enrichment [15]: 0.487 | phosphorylation enrichment [16]: 0.48

NDTAGYFIIGG [SEL1L3_Y399]
SH2 binding enrichment [1]: 7.59 | SH2 binding enrichment [2]: 0.812 | SH2 binding enrichment [3]: 0.693 | phosphorylation enrichment [4]: 1.15 | phosphorylation enrichment [5]: 0.601 | phosphorylation enrichment [6]: 0.78 | phosphorylation enrichment [7]: 1.34 | phosphorylation enrichment [8]: 6.38 | phosphorylation enrichment [9]: 0.582 | phosphorylation enrichment [10]: 0.584 | phosphorylation enrichment [11]: 0.523 | phosphorylation enrichment [12]: 0.494 | phosphorylation enrichment [13]: 1.14 | phosphorylation enrichment [14]: 0.834 | phosphorylation enrichment [15]: 1.77 | phosphorylation enrichment [16]: 0.547

NFFDTCIKTCL [IQGAP2_Y1445_Y1445C_YF]
SH2 binding enrichment [1]: 1.01 | SH2 binding enrichment [2]: 1.06 | SH2 binding enrichment [3]: 1.15 | phosphorylation enrichment [4]: 0.809 | phosphorylation enrichment [5]: 0.407 | phosphorylation enrichment [6]: 0.721 | phosphorylation enrichment [7]: 0.607 | phosphorylation enrichment [8]: 0.879 | phosphorylation enrichment [9]: 0.369 | phosphorylation enrichment [10]: 0.521 | phosphorylation enrichment [11]: 0.491 | phosphorylation enrichment [12]: 0.45 | phosphorylation enrichment [13]: 1.01 | phosphorylation enrichment [14]: 0.523 | phosphorylation enrichment [15]: 0.476 | phosphorylation enrichment [16]: 0.484

NFNPNYCFAGK [ALK_Y1096_D1091N_YF]
SH2 binding enrichment [1]: 0.681 | SH2 binding enrichment [2]: 0.881 | SH2 binding enrichment [3]: 0.876 | phosphorylation enrichment [4]: 1.25 | phosphorylation enrichment [5]: 0.651 | phosphorylation enrichment [6]: 0.617 | phosphorylation enrichment [7]: 0.666 | phosphorylation enrichment [8]: 0.744 | phosphorylation enrichment [9]: 0.612 | phosphorylation enrichment [10]: 0.472 | phosphorylation enrichment [11]: 1.01 | phosphorylation enrichment [12]: 0.706 | phosphorylation enrichment [13]: 0.821 | phosphorylation enrichment [14]: 0.846 | phosphorylation enrichment [15]: 0.548 | phosphorylation enrichment [16]: 2.56

NFRPGYNNFFN [USH2A_Y467_YF]
SH2 binding enrichment [1]: 0.497 | SH2 binding enrichment [2]: 0.686 | SH2 binding enrichment [3]: 0.9 | phosphorylation enrichment [4]: 0.773 | phosphorylation enrichment [5]: 0.466 | phosphorylation enrichment [6]: 0.574 | phosphorylation enrichment [7]: 0.549 | phosphorylation enrichment [8]: 0.712 | phosphorylation enrichment [9]: 0.522 | phosphorylation enrichment [10]: 0.64 | phosphorylation enrichment [11]: 0.483 | phosphorylation enrichment [12]: 0.389 | phosphorylation enrichment [13]: 0.772 | phosphorylation enrichment [14]: 0.433 | phosphorylation enrichment [15]: 0.519 | phosphorylation enrichment [16]: 0.354

NGSKAYAYVHF [PABPC5_Y147_G146A]
SH2 binding enrichment [1]: 6.01 | SH2 binding enrichment [2]: 18.8 | SH2 binding enrichment [3]: 0.903 | phosphorylation enrichment [4]: 1.06 | phosphorylation enrichment [5]: 0.438 | phosphorylation enrichment [6]: 0.634 | phosphorylation enrichment [7]: 0.646 | phosphorylation enrichment [8]: 0.796 | phosphorylation enrichment [9]: 0.4 | phosphorylation enrichment [10]: 0.401 | phosphorylation enrichment [11]: 0.52 | phosphorylation enrichment [12]: 0.637 | phosphorylation enrichment [13]: 1.03 | phosphorylation enrichment [14]: 0.656 | phosphorylation enrichment [15]: 0.568 | phosphorylation enrichment [16]: 0.514

NGVSFYINLCQ [IGF2R_Y2025_YF]
SH2 binding enrichment [1]: 0.396 | SH2 binding enrichment [2]: 0.651 | SH2 binding enrichment [3]: 0.791 | phosphorylation enrichment [4]: 1.5 | phosphorylation enrichment [5]: 0.567 | phosphorylation enrichment [6]: 1.16 | phosphorylation enrichment [7]: 1.01 | phosphorylation enrichment [8]: 1.92 | phosphorylation enrichment [9]: 0.452 | phosphorylation enrichment [10]: 0.472 | phosphorylation enrichment [11]: 0.699 | phosphorylation enrichment [12]: 0.671 | phosphorylation enrichment [13]: 2 | phosphorylation enrichment [14]: 0.478 | phosphorylation enrichment [15]: 0.568 | phosphorylation enrichment [16]: 1.11

NHFKIHNLCAE [PTEN_Y68_Y68H_YF]
SH2 binding enrichment [1]: 0.513 | SH2 binding enrichment [2]: 0.751 | SH2 binding enrichment [3]: 1.04 | phosphorylation enrichment [4]: 0.58 | phosphorylation enrichment [5]: 0.394 | phosphorylation enrichment [6]: 0.367 | phosphorylation enrichment [7]: 0.441 | phosphorylation enrichment [8]: 0.459 | phosphorylation enrichment [9]: 0.466 | phosphorylation enrichment [10]: 0.432 | phosphorylation enrichment [11]: 0.374 | phosphorylation enrichment [12]: 0.384 | phosphorylation enrichment [13]: 0.642 | phosphorylation enrichment [14]: 0.437 | phosphorylation enrichment [15]: 0.428 | phosphorylation enrichment [16]: 0.384

NKVKFYIPDMN [NCR1_Y84]
SH2 binding enrichment [1]: 0.854 | SH2 binding enrichment [2]: 0.849 | SH2 binding enrichment [3]: 0.954 | phosphorylation enrichment [4]: 0.743 | phosphorylation enrichment [5]: 0.432 | phosphorylation enrichment [6]: 0.602 | phosphorylation enrichment [7]: 0.66 | phosphorylation enrichment [8]: 0.8 | phosphorylation enrichment [9]: 0.396 | phosphorylation enrichment [10]: 0.567 | phosphorylation enrichment [11]: 0.476 | phosphorylation enrichment [12]: 0.448 | phosphorylation enrichment [13]: 0.865 | phosphorylation enrichment [14]: 0.388 | phosphorylation enrichment [15]: 0.432 | phosphorylation enrichment [16]: 0.496

NMSRIYSTAKV [ACE_Y151]
SH2 binding enrichment [1]: 0.545 | SH2 binding enrichment [2]: 1.25 | SH2 binding enrichment [3]: 0.901 | phosphorylation enrichment [4]: 0.573 | phosphorylation enrichment [5]: 0.528 | phosphorylation enrichment [6]: 0.545 | phosphorylation enrichment [7]: 0.448 | phosphorylation enrichment [8]: 0.535 | phosphorylation enrichment [9]: 0.477 | phosphorylation enrichment [10]: 0.477 | phosphorylation enrichment [11]: 0.493 | phosphorylation enrichment [12]: 0.416 | phosphorylation enrichment [13]: 0.563 | phosphorylation enrichment [14]: 0.417 | phosphorylation enrichment [15]: 0.451 | phosphorylation enrichment [16]: 0.342
